# Measured values published in patent publication US10081665B2, “Peptides and combination of peptides for use in immunotherapy against various tumors” (immatics biotechnologies GmbH, priority 2015, dated 2018).
# Target: HLA-A*02:01 (Homo sapiens, UniProt P04439, D140Y/D185E/D98H/E176V/E277Q/G131W/G231S/I119V/I121R/I166T/I218V/L300P/L318F/N151K/N90K/P208A/P217A/Q86G/Q94H/R138H/R169H/T345S)
# Test: MHC binding assay (UV-ligand exchange, beta2m ELISA)
# Conditions: binding to HLA-A*02:01, β2m ELISA
# Text: Candidate peptides for T cell based therapies according to the present invention were further tested for their MHC binding capacity (affinity). The individual peptide-MHC complexes were produced by UV-ligand exchange, where a UV-sensitive peptide is cleaved upon UV-irradiation, and exchanged with the peptide of interest as analyzed. Only peptide candidates that can effectively bind and stabilize the peptide-receptive MHC molecules prevent dissociation of the MHC complexes. To determine the yield of the exchange reaction, an ELISA was performed based on the detection of the light chain (β2m) of stabilized MHC complexes. The assay was performed as generally described in Rodenko et al. (Rodenko et al., 2006).
# 96 well MAXISorp plates (NUNC) were coated over night with 2 ug/ml streptavidin in PBS at room temperature, washed 4× and blocked for 1 h at 37° C. in 2% BSA containing blocking buffer. Refolded HLA-A*02:01/MLA-001 monomers served as standards, covering the range of 15-500 ng/ml. Peptide-MHC monomers of the UV-exchange reaction were diluted 100 fold in blocking buffer. Samples were incubated for 1 h at 37° C., washed four times, incubated with 2 ug/ml HRP conjugated anti-82m for 1 h at 37° C., washed again and detected with TMB solution that is stopped with […]. Absorption was measured at 450 nm. Candidate peptides that show a high exchange yield (preferably higher than 50%, most preferred higher than 75%) are generally preferred for a generation and production of antibodies or fragments thereof, and/or T cell receptors or fragments thereof, as they show sufficient avidity to the MHC molecules and prevent dissociation of the MHC complexes.
row,Substance,"Peptide exchange (MHC class I binding score, peptide exchange yield)"
1,105 (AMLASQTEA; listed as Homo sapiens) [compound 105],++ (≥20% = ++)
2,217 (LLWPSSVPA; listed as Homo sapiens) [compound 217],+++ (≥50 = +++)
3,248 (VLMQDSRLYL; listed as Homo sapiens) [compound 248],+++ (≥50 = +++)
4,286 (FLTEMVHFI; listed as Homo sapiens) [compound 286],+++ (≥50 = +++)
5,76 (FTAEFLEKV; listed as Homo sapiens) [compound 76],+++ (≥50 = +++)
6,145 (ALEEKLENV; listed as Homo sapiens) [compound 145],+++ (≥50 = +++)
7,125 (AALEVLAEV; listed as Homo sapiens) [compound 125],+++ (≥50 = +++)
8,81 (ILAEEPIYI; listed as Homo sapiens) [compound 81],++ (≥20% = ++)
9,226 (SLAGNLQEL; listed as Homo sapiens) [compound 226],+++ (≥50 = +++)
10,170 (FIAAVVEKV; listed as Homo sapiens) [compound 170],++ (≥20% = ++)
11,247 (NLLIDDKGTIKL; listed as Homo sapiens) [compound 247],++ (≥20% = ++)
12,207 (KLFETVEEL; listed as Homo sapiens) [compound 207],+++ (≥50 = +++)
13,175 (SLLDLVQSL; listed as Homo sapiens) [compound 175],+++ (≥50 = +++)
14,206 (GLDAFRIFL; listed as Homo sapiens) [compound 206],++++ (≥75% = ++++)
15,55 (HLFDKIIKI; listed as Homo sapiens) [compound 55],+++ (≥50 = +++)
16,185 (TLYQGLPAEV; listed as Homo sapiens) [compound 185],++ (≥20% = ++)
17,111 (AQLEGKLVSI; listed as Homo sapiens) [compound 111],+++ (≥50 = +++)
18,33 (TLDRNSLYV; listed as Homo sapiens) [compound 33],++ (≥20% = ++)
19,220 (ALSELERVL; listed as Homo sapiens) [compound 220],+++ (≥50 = +++)

row,Substance,"Peptide exchange (MHC class I binding score, peptide exchange yield)"
1,140 (FLDSQITTV; listed as Homo sapiens) [compound 140],+++ (≥50 = +++)
2,244 (NVAEIVIHI; listed as Homo sapiens) [compound 244],+++ (≥50 = +++)
3,1 (KLQEKIQEL; listed as Homo sapiens) [compound 1],++++ (≥75% = ++++)
4,150 (VLLDMVHSL; listed as Homo sapiens) [compound 150],+++ (≥50 = +++)
5,153 (KLVELEHTL; listed as Homo sapiens) [compound 153],+++ (≥50 = +++)
6,88 (LLLPLELSLA; listed as Homo sapiens) [compound 88],+++ (≥50 = +++)
7,173 (RLIDIYKNV; listed as Homo sapiens) [compound 173],+++ (≥50 = +++)
8,45 (FLPVSVVYV; listed as Homo sapiens) [compound 45],+++ (≥50 = +++)
9,130 (QLYGSAITL; listed as Homo sapiens) [compound 130],+++ (≥50 = +++)
10,235 (SLLNQPKAV; listed as Homo sapiens) [compound 235],++ (≥20% = ++)
11,79 (TVLEEIGNRV; listed as Homo sapiens) [compound 79],++ (≥20% = ++)
12,61 (ALYPKEITL; listed as Homo sapiens) [compound 61],+++ (≥50 = +++)
13,38 (VLQQESNFL; listed as Homo sapiens) [compound 38],++ (≥20% = ++)
14,132 (ALLNNVIEV; listed as Homo sapiens) [compound 132],+++ (≥50 = +++)
15,167 (LVVDEGSLVSV; listed as Homo sapiens) [compound 167],+++ (≥50 = +++)
16,268 (SLDKDIVAL; listed as Homo sapiens) [compound 268],++ (≥20% = ++)
17,138 (GIINKLVTV; listed as Homo sapiens) [compound 138],++ (≥20% = ++)
18,229 (YLYELEHAL; listed as Homo sapiens) [compound 229],++ (≥20% = ++)
19,148 (YLILSSHQL; listed as Homo sapiens) [compound 148],+++ (≥50 = +++)

row,Substance,"Peptide exchange (MHC class I binding score, peptide exchange yield)"
1,26 (VLDGKVAVV; listed as Homo sapiens) [compound 26],+++ (≥50 = +++)
2,142 (LLDAAHASI; listed as Homo sapiens) [compound 142],++ (≥20% = ++)
3,147 (GLLSALENV; listed as Homo sapiens) [compound 147],+++ (≥50 = +++)
4,262 (LLLEAVWHL; listed as Homo sapiens) [compound 262],+++ (≥50 = +++)
5,20 (ALVEKGEFAL; listed as Homo sapiens) [compound 20],++ (≥20% = ++)
6,126 (QLREAFEQL; listed as Homo sapiens) [compound 126],+++ (≥50 = +++)
7,221 (IMLNSVEEI; listed as Homo sapiens) [compound 221],++ (≥20% = ++)
8,214 (ALFETLIQL; listed as Homo sapiens) [compound 214],+++ (≥50 = +++)
9,74 (GLAFLPASV; listed as Homo sapiens) [compound 74],++ (≥20% = ++)
10,154 (AIIKEIQTV; listed as Homo sapiens) [compound 154],++ (≥20% = ++)
11,174 (ALYSGDLHAA; listed as Homo sapiens) [compound 174],++ (≥20% = ++)
12,161 (NLLDENVCL; listed as Homo sapiens) [compound 161],++++ (≥75% = ++++)
13,99 (TLFGIQLTEA; listed as Homo sapiens) [compound 99],+++ (≥50 = +++)
14,272 (FVMEGEPPKL; listed as Homo sapiens) [compound 272],++ (≥20% = ++)
15,282 (SLYALHVKA; listed as Homo sapiens) [compound 282],++ (≥20% = ++)
16,112 (ILAQDVAQL; listed as Homo sapiens) [compound 112],+++ (≥50 = +++)
17,164 (MLIIRVPSV; listed as Homo sapiens) [compound 164],+++ (≥50 = +++)
18,80 (VLTGQVHEL; listed as Homo sapiens) [compound 80],+++ (≥50 = +++)
19,93 (RLYGYFHDA; listed as Homo sapiens) [compound 93],++ (≥20% = ++)
